{"source": "the RNAGym collection of RNA variant scans (doi:10.1101/gr.219683.116)", "parents": {"B1": {"name": "mRNA-splicing (parent)", "chain": "AGUUGCUGCUGGGAGCUCCAGCACAGUGAAAUGGACAGAAGGGCAGAGCAA"}}, "data": [{"variants_of": "B1", "assay": "exon inclusion enrichment index; higher = more inclusion; WT1 exon 5 minigene, HEK293", "values": [{"variant": "G13U A14U", "exon inclusion enrichment index": 0.0193}, {"variant": "G13U A14G", "exon inclusion enrichment index": 0.0891}, {"variant": "G13U A14C", "exon inclusion enrichment index": 0.0646}, {"variant": "G13C A14G", "exon inclusion enrichment index": 0.42}, {"variant": "G13C A14U", "exon inclusion enrichment index": 0.194}, {"variant": "G38C A39U", "exon inclusion enrichment index": 0.00812}, {"variant": "G38C A39C", "exon inclusion enrichment index": 0.158}, {"variant": "G38C A39G", "exon inclusion enrichment index": 0.21}, {"variant": "A35G C36U", "exon inclusion enrichment index": 0.00277}, {"variant": "A35G C36G", "exon inclusion enrichment index": 0.00669}, {"variant": "A35G C36A", "exon inclusion enrichment index": 0.0734}, {"variant": "G38A A39U", "exon inclusion enrichment index": 0.00515}, {"variant": "G38A A39C", "exon inclusion enrichment index": 0.13}, {"variant": "G38A A39G", "exon inclusion enrichment index": 0.186}, {"variant": "G34C A35U", "exon inclusion enrichment index": 0.0271}, {"variant": "G34C A35G", "exon inclusion enrichment index": 0.0695}, {"variant": "G34C A35C", "exon inclusion enrichment index": 0.00408}, {"variant": "A23U C24G", "exon inclusion enrichment index": 0.96}, {"variant": "A23U C24U", "exon inclusion enrichment index": 0.078}, {"variant": "A23U C24A", "exon inclusion enrichment index": 0.217}, {"variant": "C24A A25G", "exon inclusion enrichment index": 0.315}, {"variant": "C24A A25C", "exon inclusion enrichment index": 0.728}, {"variant": "C24A A25U", "exon inclusion enrichment index": 0.16}, {"variant": "A20G G21U", "exon inclusion enrichment index": 2.37}, {"variant": "A20G G21C", "exon inclusion enrichment index": 2.64}, {"variant": "A20G G21A", "exon inclusion enrichment index": 2.89}, {"variant": "A31G U32A", "exon inclusion enrichment index": 1.08}, {"variant": "A31G U32G", "exon inclusion enrichment index": 0.104}, {"variant": "A31G U32C", "exon inclusion enrichment index": 0.99}, {"variant": "G28U", "exon inclusion enrichment index": 0.0227}, {"variant": "G28A", "exon inclusion enrichment index": 0.0138}, {"variant": "G28C", "exon inclusion enrichment index": 0.104}, {"variant": "A14U G15C", "exon inclusion enrichment index": 0.0264}, {"variant": "A14U G15A", "exon inclusion enrichment index": 0.0161}, {"variant": "A14U G15U", "exon inclusion enrichment index": 0.0223}, {"variant": "A25C G26U", "exon inclusion enrichment index": 0.368}, {"variant": "A25C G26C", "exon inclusion enrichment index": 0.435}, {"variant": "A25C G26A", "exon inclusion enrichment index": 0.448}, {"variant": "G41A G42C", "exon inclusion enrichment index": 0.419}, {"variant": "G41A G42U", "exon inclusion enrichment index": 0.107}, {"variant": "G41A G42A", "exon inclusion enrichment index": 0.141}, {"variant": "A29G A30U", "exon inclusion enrichment index": 0.0289}, {"variant": "A29G A30G", "exon inclusion enrichment index": 0.114}, {"variant": "A29G A30C", "exon inclusion enrichment index": 0.0218}, {"variant": "G28U A29U", "exon inclusion enrichment index": 0.00946}, {"variant": "G28U A29G", "exon inclusion enrichment index": 0.0875}, {"variant": "G28U A29C", "exon inclusion enrichment index": 0.0665}, {"variant": "A37C G38C", "exon inclusion enrichment index": 0.217}, {"variant": "A37C G38A", "exon inclusion enrichment index": 0.152}, {"variant": "A37C G38U", "exon inclusion enrichment index": 0.0604}, {"variant": "G28A A29C", "exon inclusion enrichment index": 0.0703}, {"variant": "G28A A29G", "exon inclusion enrichment index": 0.0365}, {"variant": "G28A A29U", "exon inclusion enrichment index": 0.00899}, {"variant": "A30U", "exon inclusion enrichment index": 0.0645}, {"variant": "A30G", "exon inclusion enrichment index": 0.182}, {"variant": "A30C", "exon inclusion enrichment index": 0.184}, {"variant": "G15C", "exon inclusion enrichment index": 0.187}, {"variant": "G15U", "exon inclusion enrichment index": 0.0812}, {"variant": "G15A", "exon inclusion enrichment index": 0.048}, {"variant": "C18U C19A", "exon inclusion enrichment index": 0.302}, {"variant": "C18U C19U", "exon inclusion enrichment index": 0.0838}, {"variant": "C18U C19G", "exon inclusion enrichment index": 0.995}, {"variant": "G34U", "exon inclusion enrichment index": 0.0244}, {"variant": "G34C", "exon inclusion enrichment index": 0.0362}, {"variant": "G34A", "exon inclusion enrichment index": 0.0592}, {"variant": "A30U A31G", "exon inclusion enrichment index": 0.155}, {"variant": "A30U A31C", "exon inclusion enrichment index": 0.202}, {"variant": "A30U A31U", "exon inclusion enrichment index": 0.087}, {"variant": "A14G G15A", "exon inclusion enrichment index": 0.102}, {"variant": "A14G G15C", "exon inclusion enrichment index": 0.0893}, {"variant": "A14G G15U", "exon inclusion enrichment index": 0.0597}, {"variant": "G21A", "exon inclusion enrichment index": 1.75}, {"variant": "G21C", "exon inclusion enrichment index": 2.64}, {"variant": "G21U", "exon inclusion enrichment index": 1.52}, {"variant": "A39G A40G", "exon inclusion enrichment index": 0.0122}, {"variant": "A39G A40U", "exon inclusion enrichment index": 0.0108}, {"variant": "A39G A40C", "exon inclusion enrichment index": 0.199}, {"variant": "C16A", "exon inclusion enrichment index": 0.0656}, {"variant": "C16U", "exon inclusion enrichment index": 0.0903}, {"variant": "C16G", "exon inclusion enrichment index": 0.103}, {"variant": "A40C G41C", "exon inclusion enrichment index": 0.92}, {"variant": "A40C G41A", "exon inclusion enrichment index": 0.0344}, {"variant": "A40C G41U", "exon inclusion enrichment index": 0.0496}, {"variant": "C18G", "exon inclusion enrichment index": 0.287}, {"variant": "C18A", "exon inclusion enrichment index": 1.5}, {"variant": "C18U", "exon inclusion enrichment index": 1.27}, {"variant": "U17A C18U", "exon inclusion enrichment index": 1.09}, {"variant": "U17A C18G", "exon inclusion enrichment index": 0.00663}, {"variant": "U17A C18A", "exon inclusion enrichment index": 0.314}, {"variant": "C19U A20G", "exon inclusion enrichment index": 0.684}, {"variant": "C19U A20U", "exon inclusion enrichment index": 1.01}, {"variant": "C19U A20C", "exon inclusion enrichment index": 1.96}, {"variant": "G13U", "exon inclusion enrichment index": 0.0154}, {"variant": "U27C", "exon inclusion enrichment index": 0.36}, {"variant": "U27A", "exon inclusion enrichment index": 0.201}, {"variant": "U27G", "exon inclusion enrichment index": 0.0622}, {"variant": "C22A A23C", "exon inclusion enrichment index": 2.97}, {"variant": "C22A A23U", "exon inclusion enrichment index": 1.56}, {"variant": "C22A A23G", "exon inclusion enrichment index": 1.76}, {"variant": "C18G C19A", "exon inclusion enrichment index": 2.92}, {"variant": "C18G C19U", "exon inclusion enrichment index": 0.777}, {"variant": "C18G C19G", "exon inclusion enrichment index": 3.04}, {"variant": "C19A A20G", "exon inclusion enrichment index": 0.356}, {"variant": "C19A A20C", "exon inclusion enrichment index": 1.81}, {"variant": "C19A A20U", "exon inclusion enrichment index": 1.14}, {"variant": "C16A U17G", "exon inclusion enrichment index": 0.0435}, {"variant": "C16A U17A", "exon inclusion enrichment index": 0.0497}, {"variant": "C16A U17C", "exon inclusion enrichment index": 0.0503}, {"variant": "C24U A25C", "exon inclusion enrichment index": 1.23}, {"variant": "C24U A25U", "exon inclusion enrichment index": 0.208}, {"variant": "C24U A25G", "exon inclusion enrichment index": 0.487}, {"variant": "A35U", "exon inclusion enrichment index": 0.0139}, {"variant": "A35C", "exon inclusion enrichment index": 0.041}, {"variant": "A35G", "exon inclusion enrichment index": 0.0494}, {"variant": "C36G A37U", "exon inclusion enrichment index": 0.0724}, {"variant": "C36G A37G", "exon inclusion enrichment index": 0.0334}, {"variant": "C36G A37C", "exon inclusion enrichment index": 0.127}, {"variant": "A39C A40G", "exon inclusion enrichment index": 0.223}, {"variant": "A39C A40C", "exon inclusion enrichment index": 0.407}, {"variant": "A39C A40U", "exon inclusion enrichment index": 0.0469}, {"variant": "A20C", "exon inclusion enrichment index": 2.03}, {"variant": "A20G", "exon inclusion enrichment index": 1.58}, {"variant": "A20U", "exon inclusion enrichment index": 2.62}, {"variant": "A29U A30G", "exon inclusion enrichment index": 0.237}, {"variant": "A29U A30U", "exon inclusion enrichment index": 0.0389}, {"variant": "A29U A30C", "exon inclusion enrichment index": 0.119}, {"variant": "A30C A31G", "exon inclusion enrichment index": 0.41}, {"variant": "A30C A31C", "exon inclusion enrichment index": 0.337}, {"variant": "A30C A31U", "exon inclusion enrichment index": 0.103}, {"variant": "G26A U27G", "exon inclusion enrichment index": 0.311}, {"variant": "G26A U27C", "exon inclusion enrichment index": 0.0175}, {"variant": "G26A U27A", "exon inclusion enrichment index": 0.101}, {"variant": "A20U G21U", "exon inclusion enrichment index": 1.91}, {"variant": "A20U G21C", "exon inclusion enrichment index": 2.37}, {"variant": "A20U G21A", "exon inclusion enrichment index": 1.45}, {"variant": "C19G A20C", "exon inclusion enrichment index": 2.84}, {"variant": "C19G A20U", "exon inclusion enrichment index": 2.21}, {"variant": "C19G A20G", "exon inclusion enrichment index": 1.23}, {"variant": "A23G C24A", "exon inclusion enrichment index": 1.56}, {"variant": "A23G C24G", "exon inclusion enrichment index": 1.64}, {"variant": "A23G C24U", "exon inclusion enrichment index": 0.167}, {"variant": "A25G G26U", "exon inclusion enrichment index": 0.326}, {"variant": "A25G G26A", "exon inclusion enrichment index": 0.573}, {"variant": "A25G G26C", "exon inclusion enrichment index": 0.272}, {"variant": "A31U", "exon inclusion enrichment index": 0.159}, {"variant": "A31G", "exon inclusion enrichment index": 0.255}, {"variant": "A31C", "exon inclusion enrichment index": 0.288}, {"variant": "U17G C18A", "exon inclusion enrichment index": 1.73}, {"variant": "U17G C18U", "exon inclusion enrichment index": 1.5}, {"variant": "U17G C18G", "exon inclusion enrichment index": 0.0429}, {"variant": "G15C C16U", "exon inclusion enrichment index": 0.0653}, {"variant": "G15C C16A", "exon inclusion enrichment index": 0.0306}, {"variant": "G15C C16G", "exon inclusion enrichment index": 0.178}, {"variant": "A14C G15A", "exon inclusion enrichment index": 0.0127}, {"variant": "A14C G15U", "exon inclusion enrichment index": 0.0261}, {"variant": "A14C G15C", "exon inclusion enrichment index": 0.0378}, {"variant": "A25U G26U", "exon inclusion enrichment index": 0.0827}, {"variant": "A25U G26A", "exon inclusion enrichment index": 0.136}, {"variant": "A25U G26C", "exon inclusion enrichment index": 0.235}, {"variant": "G26C U27A", "exon inclusion enrichment index": 0.11}, {"variant": "G26C U27G", "exon inclusion enrichment index": 0.615}, {"variant": "G26C U27C", "exon inclusion enrichment index": 0.584}, {"variant": "A23C C24A", "exon inclusion enrichment index": 0.968}, {"variant": "A23C C24U", "exon inclusion enrichment index": 0.256}, {"variant": "A23C C24G", "exon inclusion enrichment index": 2.29}, {"variant": "C24G A25G", "exon inclusion enrichment index": 0.0325}, {"variant": "C24G A25U", "exon inclusion enrichment index": 0.0194}]}]}
